# Source: US20180155451A1 (published 2018)
# T1: FcγRIIb extracellular domain with C-terminal His tag (human, UniProt P31994 43-217)
# T1 construct: extracellular domain; expressed in FreeStyle293 cells; analyte in the Biacore assay; also called FcgRIIb; 2b; not shown: His tag at the C terminus
# T1 sequence (looked up): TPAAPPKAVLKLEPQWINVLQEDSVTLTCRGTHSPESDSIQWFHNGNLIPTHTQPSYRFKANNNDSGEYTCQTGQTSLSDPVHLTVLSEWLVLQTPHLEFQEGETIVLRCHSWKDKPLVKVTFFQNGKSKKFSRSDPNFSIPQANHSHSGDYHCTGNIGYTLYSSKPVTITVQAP
# Target: T2, FcγRIa extracellular domain with C-terminal His tag (human, UniProt P12314 16-292)
# T2 construct: extracellular domain; also called FcgRI; CD64; not shown: His tag at the C terminus
# T2 sequence (P12314 16-292): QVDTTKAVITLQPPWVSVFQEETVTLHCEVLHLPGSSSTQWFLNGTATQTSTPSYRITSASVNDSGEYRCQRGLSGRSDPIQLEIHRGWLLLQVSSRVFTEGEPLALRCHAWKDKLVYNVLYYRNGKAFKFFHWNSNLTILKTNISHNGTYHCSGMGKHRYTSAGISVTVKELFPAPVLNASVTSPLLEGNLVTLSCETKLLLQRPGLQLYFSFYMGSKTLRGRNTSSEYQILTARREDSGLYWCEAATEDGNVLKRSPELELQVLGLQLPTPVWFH
# Test: SPR Biacore, relative FcγRIa binding vs GpH7-A5/GpH7-B3/GpL16-k0
row,Binder,He/Con_1a
1,"GpH7-A5/GpH7-B3 variant T335_08L/GpL16-k0 (antibody, human IgG1, kappa, mutation in one H chain only; also called He Ab T335_08L; T335L) heavy 1: not shown heavy 2: not shown light: DIVMTQSPLSLPVTPGEPASISCQASESLVHSNRNTYLHWYLQKPGQSPQLLIYKVSNRFSGVPDRFSGSGSGTDFTLKISRVEAEDVGVYYCSQNTHVPPTFGQGTKVEIERTVAAPSVFIFPPSDEQLKSGTASVVCLLNNFYPREAKVQWKVDNALQSGNSQESVTEQDSKDSTYSLSSTLTLSKADYEKHKVYACEVTHQGLSSPVTKSFNRGEC",115 % of HeCon Ab (=100)
2,"GpH7-A5/GpH7-B3 variant T335_15Y/GpL16-k0 (antibody, human IgG1, kappa, mutation in one H chain only; also called He Ab T335_15Y; T335Y) heavy 1: not shown heavy 2: not shown light: DIVMTQSPLSLPVTPGEPASISCQASESLVHSNRNTYLHWYLQKPGQSPQLLIYKVSNRFSGVPDRFSGSGSGTDFTLKISRVEAEDVGVYYCSQNTHVPPTFGQGTKVEIERTVAAPSVFIFPPSDEQLKSGTASVVCLLNNFYPREAKVQWKVDNALQSGNSQESVTEQDSKDSTYSLSSTLTLSKADYEKHKVYACEVTHQGLSSPVTKSFNRGEC",107 % of HeCon Ab (=100)
3,"GpH7-A5/GpH7-B3 variant T335_10E/GpL16-k0 (antibody, human IgG1, kappa, mutation in one H chain only; also called He Ab T335_10E; T335E) heavy 1: not shown heavy 2: not shown light: DIVMTQSPLSLPVTPGEPASISCQASESLVHSNRNTYLHWYLQKPGQSPQLLIYKVSNRFSGVPDRFSGSGSGTDFTLKISRVEAEDVGVYYCSQNTHVPPTFGQGTKVEIERTVAAPSVFIFPPSDEQLKSGTASVVCLLNNFYPREAKVQWKVDNALQSGNSQESVTEQDSKDSTYSLSSTLTLSKADYEKHKVYACEVTHQGLSSPVTKSFNRGEC",109 % of HeCon Ab (=100)
4,"GpH7-A5/GpH7-B3 variant T335_09D/GpL16-k0 (antibody, human IgG1, kappa, mutation in one H chain only; also called He Ab T335_09D; T335D) heavy 1: not shown heavy 2: not shown light: DIVMTQSPLSLPVTPGEPASISCQASESLVHSNRNTYLHWYLQKPGQSPQLLIYKVSNRFSGVPDRFSGSGSGTDFTLKISRVEAEDVGVYYCSQNTHVPPTFGQGTKVEIERTVAAPSVFIFPPSDEQLKSGTASVVCLLNNFYPREAKVQWKVDNALQSGNSQESVTEQDSKDSTYSLSSTLTLSKADYEKHKVYACEVTHQGLSSPVTKSFNRGEC",108 % of HeCon Ab (=100)

# More lines, now with the values ahead:
row,He/Con_1a,Binder
1,107 % of HeCon Ab (=100),"GpH7-A5/GpH7-B3 variant T335_06M/GpL16-k0 (antibody, human IgG1, kappa, mutation in one H chain only; also called He Ab T335_06M; T335M) heavy 1: not shown heavy 2: not shown light: DIVMTQSPLSLPVTPGEPASISCQASESLVHSNRNTYLHWYLQKPGQSPQLLIYKVSNRFSGVPDRFSGSGSGTDFTLKISRVEAEDVGVYYCSQNTHVPPTFGQGTKVEIERTVAAPSVFIFPPSDEQLKSGTASVVCLLNNFYPREAKVQWKVDNALQSGNSQESVTEQDSKDSTYSLSSTLTLSKADYEKHKVYACEVTHQGLSSPVTKSFNRGEC"
2,100 % of HeCon Ab (=100),"GpH7-A5/GpH7-B3 variant V266_19Q/GpL16-k0 (antibody, human IgG1, kappa, mutation in one H chain only; also called He Ab V266_19Q; V266Q) heavy 1: not shown heavy 2: not shown light: DIVMTQSPLSLPVTPGEPASISCQASESLVHSNRNTYLHWYLQKPGQSPQLLIYKVSNRFSGVPDRFSGSGSGTDFTLKISRVEAEDVGVYYCSQNTHVPPTFGQGTKVEIERTVAAPSVFIFPPSDEQLKSGTASVVCLLNNFYPREAKVQWKVDNALQSGNSQESVTEQDSKDSTYSLSSTLTLSKADYEKHKVYACEVTHQGLSSPVTKSFNRGEC"
3,111 % of HeCon Ab (=100),"GpH7-A5/GpH7-B3 variant T335_11K/GpL16-k0 (antibody, human IgG1, kappa, mutation in one H chain only; also called He Ab T335_11K; T335K) heavy 1: not shown heavy 2: not shown light: DIVMTQSPLSLPVTPGEPASISCQASESLVHSNRNTYLHWYLQKPGQSPQLLIYKVSNRFSGVPDRFSGSGSGTDFTLKISRVEAEDVGVYYCSQNTHVPPTFGQGTKVEIERTVAAPSVFIFPPSDEQLKSGTASVVCLLNNFYPREAKVQWKVDNALQSGNSQESVTEQDSKDSTYSLSSTLTLSKADYEKHKVYACEVTHQGLSSPVTKSFNRGEC"
4,105 % of HeCon Ab (=100),"GpH7-A5/GpH7-B3 variant Y300_12R/GpL16-k0 (antibody, human IgG1, kappa, mutation in one H chain only; also called He Ab Y300_12R; Y300R) heavy 1: not shown heavy 2: not shown light: DIVMTQSPLSLPVTPGEPASISCQASESLVHSNRNTYLHWYLQKPGQSPQLLIYKVSNRFSGVPDRFSGSGSGTDFTLKISRVEAEDVGVYYCSQNTHVPPTFGQGTKVEIERTVAAPSVFIFPPSDEQLKSGTASVVCLLNNFYPREAKVQWKVDNALQSGNSQESVTEQDSKDSTYSLSSTLTLSKADYEKHKVYACEVTHQGLSSPVTKSFNRGEC"
5,113 % of HeCon Ab (=100),"GpH7-A5/GpH7-B3 variant T335_12R/GpL16-k0 (antibody, human IgG1, kappa, mutation in one H chain only; also called He Ab T335_12R; T335R) heavy 1: not shown heavy 2: not shown light: DIVMTQSPLSLPVTPGEPASISCQASESLVHSNRNTYLHWYLQKPGQSPQLLIYKVSNRFSGVPDRFSGSGSGTDFTLKISRVEAEDVGVYYCSQNTHVPPTFGQGTKVEIERTVAAPSVFIFPPSDEQLKSGTASVVCLLNNFYPREAKVQWKVDNALQSGNSQESVTEQDSKDSTYSLSSTLTLSKADYEKHKVYACEVTHQGLSSPVTKSFNRGEC"
6,109 % of HeCon Ab (=100),"GpH7-A5/GpH7-B3 variant T335_07I/GpL16-k0 (antibody, human IgG1, kappa, mutation in one H chain only; also called He Ab T335_07I; T335I) heavy 1: not shown heavy 2: not shown light: DIVMTQSPLSLPVTPGEPASISCQASESLVHSNRNTYLHWYLQKPGQSPQLLIYKVSNRFSGVPDRFSGSGSGTDFTLKISRVEAEDVGVYYCSQNTHVPPTFGQGTKVEIERTVAAPSVFIFPPSDEQLKSGTASVVCLLNNFYPREAKVQWKVDNALQSGNSQESVTEQDSKDSTYSLSSTLTLSKADYEKHKVYACEVTHQGLSSPVTKSFNRGEC"

# Target: T1, FcγRIIb extracellular domain with …
# Test: SPR (Biacore), captured antibody, FcγRIIb analyte; binding relative to GpH7-B3/GpL16-k0 = 100
row,Binder,Ho/Con_2b
1,"GpH7-B3 variant K326_07I/GpL16-k0 (antibody, human IgG1, kappa, homodimerized; mutation in both H chains; also called Ho Ab K326_07I) heavy: not shown light: DIVMTQSPLSLPVTPGEPASISCQASESLVHSNRNTYLHWYLQKPGQSPQLLIYKVSNRFSGVPDRFSGSGSGTDFTLKISRVEAEDVGVYYCSQNTHVPPTFGQGTKVEIERTVAAPSVFIFPPSDEQLKSGTASVVCLLNNFYPREAKVQWKVDNALQSGNSQESVTEQDSKDSTYSLSSTLTLSKADYEKHKVYACEVTHQGLSSPVTKSFNRGEC",170 % of control
2,"GpH7-B3 variant A327_10E/GpL16-k0 (antibody, human IgG1, kappa, homodimerized; mutation in both H chains; also called Ho Ab A327_10E) heavy: not shown light: DIVMTQSPLSLPVTPGEPASISCQASESLVHSNRNTYLHWYLQKPGQSPQLLIYKVSNRFSGVPDRFSGSGSGTDFTLKISRVEAEDVGVYYCSQNTHVPPTFGQGTKVEIERTVAAPSVFIFPPSDEQLKSGTASVVCLLNNFYPREAKVQWKVDNALQSGNSQESVTEQDSKDSTYSLSSTLTLSKADYEKHKVYACEVTHQGLSSPVTKSFNRGEC",148 % of control
3,"GpH7-B3 variant A330_01G/GpL16-k0 (antibody, human IgG1, kappa, homodimerized; mutation in both H chains; also called Ho Ab A330_01G) heavy: not shown light: DIVMTQSPLSLPVTPGEPASISCQASESLVHSNRNTYLHWYLQKPGQSPQLLIYKVSNRFSGVPDRFSGSGSGTDFTLKISRVEAEDVGVYYCSQNTHVPPTFGQGTKVEIERTVAAPSVFIFPPSDEQLKSGTASVVCLLNNFYPREAKVQWKVDNALQSGNSQESVTEQDSKDSTYSLSSTLTLSKADYEKHKVYACEVTHQGLSSPVTKSFNRGEC",102 % of control

# The remaining lines, values ahead:
row,Ho/Con_2b,Binder
1,114 % of control,"GpH7-B3 variant G236_10E/GpL16-k0 (antibody, human IgG1, kappa, homodimerized; mutation in both H chains; also called Ho Ab G236_10E) heavy: not shown light: DIVMTQSPLSLPVTPGEPASISCQASESLVHSNRNTYLHWYLQKPGQSPQLLIYKVSNRFSGVPDRFSGSGSGTDFTLKISRVEAEDVGVYYCSQNTHVPPTFGQGTKVEIERTVAAPSVFIFPPSDEQLKSGTASVVCLLNNFYPREAKVQWKVDNALQSGNSQESVTEQDSKDSTYSLSSTLTLSKADYEKHKVYACEVTHQGLSSPVTKSFNRGEC"
2,175 % of control,"GpH7-B3 variant A327_09D/GpL16-k0 (antibody, human IgG1, kappa, homodimerized; mutation in both H chains; also called Ho Ab A327_09D) heavy: not shown light: DIVMTQSPLSLPVTPGEPASISCQASESLVHSNRNTYLHWYLQKPGQSPQLLIYKVSNRFSGVPDRFSGSGSGTDFTLKISRVEAEDVGVYYCSQNTHVPPTFGQGTKVEIERTVAAPSVFIFPPSDEQLKSGTASVVCLLNNFYPREAKVQWKVDNALQSGNSQESVTEQDSKDSTYSLSSTLTLSKADYEKHKVYACEVTHQGLSSPVTKSFNRGEC"
3,207 % of control,"GpH7-B3 variant G236_09D/GpL16-k0 (antibody, human IgG1, kappa, homodimerized; mutation in both H chains; also called Ho Ab G236_09D) heavy: not shown light: DIVMTQSPLSLPVTPGEPASISCQASESLVHSNRNTYLHWYLQKPGQSPQLLIYKVSNRFSGVPDRFSGSGSGTDFTLKISRVEAEDVGVYYCSQNTHVPPTFGQGTKVEIERTVAAPSVFIFPPSDEQLKSGTASVVCLLNNFYPREAKVQWKVDNALQSGNSQESVTEQDSKDSTYSLSSTLTLSKADYEKHKVYACEVTHQGLSSPVTKSFNRGEC"
